# Laboratory results published in publication PMC6233222, “Structure and oligomerization of the periplasmic domain of GspL from the type II secretion system of Pseudomonas aeruginosa” (Scientific Reports, 2018).
# B1: GspL^fld, the crystallized proteolytic product of GspL^peri (ferredoxin-like domain of GspL) (domain or fragment)
# chain: RAQFDQHLADSASSGGEGQLLGLLGQAATVIGGEPTVSVEQLDFSAARGDVALQVRAPGFDVLERLRSRLSESGLAVQLGSASRDGSTVSARLVIGG
# notes: GspL (XcpY), P. aeruginosa PAO1; proteolytic product of the construct 261-382 with the new N-terminus at residue 286 (Edman degradation); the C-terminal limit 382 is that of the parent construct; The protease is not identified; the N-terminal Strep-tag is lost with the N-terminal part of the MPD; also called Gsp^fld; crystal form 1; source: E. coli BL21 (DE3), purified GspL^peri (late elution …)
# B2: GspL^fld purified from GspL^peri that was incubated in crystallization conditions over 48 hours (domain or fragment)
# chain: DSASSGGEGQLLGLLGQAATVIGGEPTVSVEQLDFSAARGDVALQVRAPGFDVLERLRSRLSESGLAVQLGSASRDGSTVSARLVIGG
# notes: GspL (XcpY), P. aeruginosa PAO1; mixture of two proteolytic variants of the construct 261-382 that start at residues 286 and 295 (Edman degradation), the shorter one (from 295) predominant; the C-terminal limit 382 is that of the parent construct; The sample is a mixture of 295-382 (predominant) and 286-382; also called GspL^fld (in solution); 10 kDa band; source: E. coli BL21 (DE3), purified …
# B3: GspL^peri, the complete periplasmic segment of general secretory pathway protein L (GspL) from Pseudomonas aeruginosa (domain or fragment)
# chain: GDRYAAQSAELYRQLFPEDRKLINLRAQFDQHLADSASSGGEGQLLGLLGQAATVIGGEPTVSVEQLDFSAARGDVALQVRAPGFDVLERLRSRLSESGLAVQLGSASRDGSTVSARLVIGG
# notes: membrane proximal domain (MPD), short linker and ferredoxin-like domain (FLD); calculated mass of the construct 13.95 kDa; No step that removes the tag is described; also called XcpY (periplasmic segment); EEP and LEP material; source: E. coli BL21 (DE3), purified (Strep-tactin, SEC on Superdex 75); not shown: Strep-tag, N-terminal, kept
# Assays:
# [1] = molecular target: the molecule itself; experiment: crystal structure; crystal form 1, space group I4(1)22, 2.5 Å; dimer generated by a crystallographic 2-fold axis; sample from the LEP, sitting drop vapor diffusion at 20 °C
# [2] = molecular target: the molecule itself; experiment: SEC-MALLS; GspL^fld made by incubation of GspL^peri in crystallization conditions over 48 hours and purified by SEC (absorbance at 220 nm)
# [3] = molecular target: the molecule itself; experiment: SEC-SAXS; early elution peak of GspL^peri, 9.0 mg/ml injected; Bio SEC-3 column, SWING beamline
# [4] = molecular target: the molecule itself; experiment: SEC-SAXS; late elution peak of GspL^peri, 13.7 mg/ml injected; Bio SEC-3 column, SWING beamline
# [5] = molecular target: the molecule itself; experiment: SEC-MALLS; early elution peak (EEP) of GspL^peri, one hour after purification and after concentration; Superdex 200 increase in 50 mM TRIS pH 7.5, 100 mM NaCl; tetramer converts irreversibly into dimers
protein,measurement,setting,value
B1,stoichiometry N,[1],2
B2,stoichiometry N,[2],2
B3,stoichiometry N,[3],4
same,stoichiometry N,[4],2
same,"tetramer to dimer ratio of peak areas, higher concentration",[5],0.57
same,"tetramer to dimer ratio of peak areas, lower concentration",[5],0.7
